Assay results from patent publication US20250108100A1, “C-TERMINAL FRAGMENT OF APOLIPOPROTEIN E AND APPLICATION THEREOF IN INHIBITING y-SECRETASE ACTIVITY” (SYNPHATEC (SHANGHAI) BIOPHARMACEUTICAL TECHNOLOGY CO., LTD., priority 2022, published 2025).

Molecular target: purified human γ-secretase (NCT-V5-6×His; FLAG-PEN2; APH; PS1) (human) (UniProt Q92542)
Assay: cell-based or functional assay

ApoE2-3×FLAG (purified), sequence (P02649 19-317 R176C): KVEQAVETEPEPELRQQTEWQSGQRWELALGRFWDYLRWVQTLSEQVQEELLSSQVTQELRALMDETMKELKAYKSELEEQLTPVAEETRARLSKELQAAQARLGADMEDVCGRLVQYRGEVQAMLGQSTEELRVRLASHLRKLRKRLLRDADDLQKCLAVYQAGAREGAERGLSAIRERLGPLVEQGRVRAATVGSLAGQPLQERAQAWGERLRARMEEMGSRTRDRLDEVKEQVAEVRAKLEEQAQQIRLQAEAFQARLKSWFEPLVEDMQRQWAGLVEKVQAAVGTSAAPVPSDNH

## ApoE2-3×FLAG (purified) (from UniProt P02649 19-317)
  IC50 for Aβ production on co-incubation of purified β-CTF and γ-secretase with a concentration series of ApoE2 (ELISA): 1200 nM
  half-inhibitory concentration (IC50) for Aβ40 production from purified β-CTF by purified γ-secretase (ELISA): 1200 nM
